The source of these data is paper PMC6788056.

Substrate in this data set: NC(=O)c1ccc[n+]([C@@H]2O[C@H](COP(=O)([O-])OP(=O)(O)OC[C@H]3O[C@@H](n4cnc5c(N)ncnc54)[C@H](O)[C@@H]3O)[C@@H](O)[C@H]2O)c1
Briefly: purified protein. Particulars: NAD^+ binding (NB) domain; varied: cofactor.

B1: hUGDH (human UDP-glucose dehydrogenase) (Homo sapiens) (protein)
chain: MFEIKKICCIGAGYVGGPTCSVIAHMCPEIRVTVVDVNESRINAWNSPTLPIYEPGLKEVVESCRGKNLFFSTNIDDAIKEADLVFISVNTPTKTYGMGKGRAADLKYIEACARRIVQNSNGYKIVTEKSTVPVRAAESIRRIFDANTKPNLNLQVLSNPEFLAEGTAIKDLKNPDRVLIGGDETPEGQRAVQALCAVYEHWVPREKILTTNTWSSELSKLAANAFLAQRISSINSISALCEATGADVEEVATAIGMDQRIGNKFLKASVGFGGSCFQKDVLNLVYLCEALNLPEVARYWQQVIDMNDYQRRRFASRIIDSLFNTVTDKKIAILGFAFKKDTGDTRESSSIYISKYLMDEGAHLHIYDPKVPREQIVVDLSHPGVSEDDQVSRLVTISKDPYEACDGAHAVVICTEWDMFKELDYERIHKKMLKPAFIFDGRRVLDGLHNELQTIGFQIETIGKKVSSKRIPYAPSGEIPKFSLQDPPNKKPKV
On to B1, for which the K0.5 worked out at 1094 ± 244 µM.

B2: cUGDH (C. elegans UDP-glucose dehydrogenase) (Caenorhabditis elegans) (protein)
chain: MTDQVFGKVSKVVCVGAGYVGGPTCAMIAHKCPHITVTVVDMNTAKIAEWNSDKLPIYEPGLDEIVFAARGRNLFFSSDIPKAIAEADLIFISVNTPTKMYGRGKGMAPDLKYVESVSRTIAQYAGGPKIVVEKSTVPVKAAESIGCILREAQKNNENLKFQVLSNPEFLAEGTAMKDLANPDRVLIGGESSPEGLQAVAELVRIYENWVPRNRIITTNTWSSELSKLVANAFLAQRISSINSISAVCEATGAEISEVAHAVGYDTRIGSKFLQASVGFGGSCFQKDVLSLVYLCESLNLPQVADYWQGVININNWQRRRFADKIIAELFNTVTDKKIAIFGFAFKKNTGDTRESSAIHVIKHLMEEHAKLSVYDPKVQKSQMLNDLASVTSAQDVERLITVESDPYAAARGAHAIVVLTEWDEFVELNYSQIHNDMQHPAAIFDGRLILDQKALREIGFRTFAIGTSPDQAYNLFGTAGY
Turning to B2, the K0.5 was 333 ± 18 µM.
